2 molecules from patent US11311610B2, “Immune-modulating agents and uses therefor” (UNIVERSITY OF TECHNOLOGY SYDNEY, priority 2010, dated 2022) can be followed below.

In experiment [1] the test system is immune cell invasion of pancreatic islets. Kind of experiment: Insulitis in NOD mouse model of type 1 diabetes. Type of experiment: in vivo. The settings on record: NOD mice, 6 injections every second day from 5 weeks, sacrificed at 10 weeks. The source says:
Non-obese diabetic (NOD) mice (model of Type 1 diabetes) were given 6 injections (on every second day) of proteinaceous compound beginning at 5 weeks of age and animals were sacrificed at 10 weeks of age (i.e. when insulitis develops). Subsequently, formalin-fixed, paraffin-embedded pancreata was stained with haematoxylin and eosin to assess islet inflammation (i.e., insulitis).
Islet insulitis was scored as 0 (healthy islet), 1 (peri-insulitis up to 25% of islet occupied by leukocytes), 2 (leukocytic infiltration from 25% up to 50% of islet mass), 3 (leukocytic infiltration from 50% up to 75% of islet mass) or 4 (less than 25% of islet mass present). Accordingly, the greater the percentage of islets with higher insulitis scores the worse the prognosis for diabetes development would be for that animal.

A further experiment deals with NOD mice. Kind of experiment: Diabetes development in NOD mice (blood glucose). Type of experiment: in vivo. As to the method:
FIG. 13 is a graphical representation showing that FhHDM-1 protects NOD mice from developing diabetes. FhHDM-1 was given to female NOD mice aged 4 weeks. 10 μg of FhHDM-1 was delivered i.p. in PBS on alternate days for a total of 6 doses. Blood glucose readings were taken weekly and mice with two consecutive readings >14 mmol/L were deemed diabetic.
Female NOD mice (n=10) were given recombinant HDM (10 μg in 100 μL sterile PBS) by intraperitoneal (i.p.) injection on alternate days beginning at 4 weeks of age for a total of 6 injections. Control mice were given 100 μL of sterile PBS on the same days. Blood glucose levels were measured once a week, from the age of 13 weeks, using Accu-check Advantage blood glucose strips (Roche). Animals were sacrificed when they became overtly diabetic; as defined by two random blood glucose concentrations above 12 mM. Statistical analysis of the times the animal was sacrificed was performed using survival analysis.

Experiment [2] relates to LPS-induced inflammatory response. Kind of experiment: Endotoxin (LPS)-induced inflammation in mice, co-injection. In kind it is in vivo, BALB/c mice. As to the method: FIG. 9 is a graphical representation showing LPS neutralization by FhHDM-1. The ability of FhHDM-1 (Δ), FhHDM-1 p1 (●) or FhHDM-1 p3 (▪) to bind to LPS was investigated by (A) incubating a range of concentrations of proteins (0.02-2 μg/well) in an LPS-coated (100 ng/well) microtitre plate. Bound peptides were detected by ELISA using rabbit anti-FhHDM-1 as a primary antibody. (B) FhHDM-1 or derived peptides (0.1 μg) were incubated in the presence of LPS (0.05-5 μg/well) and bound peptides measured as described above. Binding of peptides to the LPS-immobilized plates was expressed as a percentage of that measured for 2 μg (for panel A) or 0.1 μg (for panel B) of FhHDM-1. Data are the means±SD from three separate experiments. (C) FhHDM-1 and FhHDM-1 p3 but not FhHDM-1 p1 reduced the interaction between LPS and LBP as effectively as LL-37. LPS-coated microtitre plates were incubated with 5 μg/well of LL-37, FhHDM-1 or derived peptides for 1 h prior to the addition of 10% human sera in PBS. Interaction of LBP with LPS was measured by ELISA using an anti-LBP primary antibody and expressed as a percentage of that detected for 10% sera in the absence of added peptides. Data are the mean±SD of three separate experiments. Statistical significance was calculated using the student t-test and represent a comparison to the binding of 10% sera to immobilized LPS. (D) Binding of FITC-conjugated LPS to RAW264.7 cells was inhibited by LL-37, FhHDM-1 and peptides. RAW264.7 cells (5×10^5 cells/mL) were incubated with 1 μg/mL of FITC-conjugated LPS in the presence of increasing concentrations (0.1-10 μg/mL) of FhHDM-1, FhHDM-1 p1 and FhHDM-1 p3 and LL-37 in RPMI 1640 containing 10% FBS for 20 min at 4° C. The binding of FITC-LPS was analyzed by flow cytometry. LPS binding was expressed as a percentage of the mean fluorescence obtained for the addition of FITC-LPS to cells in the absence of peptides. Data are the mean±SD of two independent experiments. (E) FhHDM-1 and FhHDM-1 p3 both suppress the inflammatory response induced by LPS in mice. BALB/c mice were intra-peritoneally injected with 1 μg of LPS alone or combined with 1 μg of FhHDM-1, FhHDM-1 p3 or LL-37. Two hours later, sera was collected and serum levels of TNF and (F) IL-10 measured by ELISA. (G) Peritoneal macrophages were isolated, cultured unstimulated in media overnight and then levels of TNF and (H) IL-10 in the culture measured by ELISA. Data are the mean±SD of six mice in each group. Statistical significance represents a comparison to the levels of cytokines secreted by mice given LPS only.
Human Defense peptides protect against harmful inflammatory responses by preventing activation of macrophages by classical TLR ligands such as LPS (Scott et al. 2002, J. Immunol. 169, 3883-3891). Here, the inventors employed a murine model to examine whether FhHDM-1 and derived peptides can suppress LPS-induced Th1 inflammation. BALB/c mice were injected intra-peritoneally with 1 μg of LPS alone or LPS combined with 1 μg of FhHDM-1, FhHDM-1 p3 or LL-37. Two hours later, sera was collected and serum levels of the pro-inflammatory mediators TNF and IL-10 were measured by ELISA. […] Because macrophages are the main source of pro-inflammatory mediators in this murine model of inflammation, peritoneal macrophages were isolated from treated mice (LPS±FhHDM-1, peptides or LL-37 as described above), cultured unstimulated in media overnight and then levels of TNF and IL-10 in the culture media were measured by ELISA.
Six week-old female BALB/c mice were purchased from ARC (Perth, Australia) and maintained according to the guidelines of the University of Technology Sydney Animal Care and Ethics committee. For the analysis for endotoxin-induced inflammation, mice were intra-peritoneally injected with 1 μg of E. coli LPS (serotype 111:B4; Sigma) either with or without 1 μg FhHDM-1 or derived peptides. After 2 h mice were sacrificed by cervical dislocation. […]

[3] abbreviates: BALB/c mice, 1 μg LPS mixed with 1 μg i.p., 2 h.
[4] abbreviates: macrophages from treated mice, cultured unstimulated overnight.

For the molecule “KARDRAMAYLAKDNLGEKITEVITILLNRL (FhHDM-1 peptide 1 comprising a truncated amphipathic helix contained in FhHDM-1) [FhHDM-1 p1, peptide in which the amphipathic helix is truncated]”, the “immune cell invasion of pancreatic islets (insulitis)” value in experiment [1] is “no significant activity”.

B1: FhHDM-1: 90-residue polypeptide from F. hepatica, Helminth Defense Molecule-1 (SEQ ID NO:24); recombinant form minus N-terminal signal peptide, expressed in E. coli (protein, listed as Fasciola hepatica)
chain: MRFIVLLCLAEVLLAAYVEARPSEESREKLRESGRKMVKALRDAVTKAYEKARDRAMAYLAKDNLGEKITEVITILLNRLTDRLEKYAGN
For B1, the “further time the level of protection was sustained” value in the experiment with NOD mice (after 18 weeks of age) came to 7 weeks. In addition, the normoglycaemic mice in the experiment with NOD mice (female NOD mice, 10 μg i.p. alternate days x6 from 4 weeks, at 18 weeks of age) worked out at 80%. In experiment [2] (setting [3]), the “serum levels of IL-10” value is “significant reduction” and the “serum levels of TNF” value is “significant reduction”. In addition, in experiment [2] (setting [4]), the “LPS-induced secretion of IL-10 from peritoneal macrophages” value is “significantly inhibited” and the “TNF secreted from peritoneal macrophages” value is on record as “significantly reduced”.
